The values that follow come from paper PMC7764960, “Nucleus Accumbens-Associated Protein 1 Binds DNA Directly through the BEN Domain in a Sequence-Specific Manner”.

Data set [1] concerns the target T1, GST-NAC1 (Homo sapiens, UniProt Q96RE7 2-527).
T1 sequence: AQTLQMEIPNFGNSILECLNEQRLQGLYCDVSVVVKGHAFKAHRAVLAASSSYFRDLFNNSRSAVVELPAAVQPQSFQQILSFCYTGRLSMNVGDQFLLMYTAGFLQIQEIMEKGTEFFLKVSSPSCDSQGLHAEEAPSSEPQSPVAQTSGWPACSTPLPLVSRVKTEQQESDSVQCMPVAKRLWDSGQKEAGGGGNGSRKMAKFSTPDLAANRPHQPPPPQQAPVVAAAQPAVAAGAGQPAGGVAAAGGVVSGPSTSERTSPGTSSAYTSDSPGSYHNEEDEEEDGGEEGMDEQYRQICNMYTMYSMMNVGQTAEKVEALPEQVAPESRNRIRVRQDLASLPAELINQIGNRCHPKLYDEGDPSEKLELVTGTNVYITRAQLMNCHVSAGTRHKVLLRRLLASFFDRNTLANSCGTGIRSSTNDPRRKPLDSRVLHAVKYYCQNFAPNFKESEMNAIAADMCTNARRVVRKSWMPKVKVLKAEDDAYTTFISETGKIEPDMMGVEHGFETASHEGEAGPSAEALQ
The data set can be described thus: pull-down; poly(dI/dC); ITC: 20 mM HEPES pH 7.0, 0.1 M NaCl, 1 mM TCEP, 20 C (Fig 2 legend says 25 C); pull-down: 4 C with 10 ug poly(dI/dC), buffer not stated; NMR 298 K. The following applies: protein: recombinant; tags: GST N-term; chain copies: 2; label: 5' biotin on sense strand; blunt.

Data set [2] has as its target T2, NAC1 (322-485) (Homo sapiens, UniProt Q96RE7 322-485).
T2 sequence: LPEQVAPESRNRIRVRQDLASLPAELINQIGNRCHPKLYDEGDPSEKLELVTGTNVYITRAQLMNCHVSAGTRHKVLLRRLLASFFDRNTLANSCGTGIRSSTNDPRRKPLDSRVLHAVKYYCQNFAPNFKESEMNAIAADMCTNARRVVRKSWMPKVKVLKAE
The data set can be described thus: ITC; single event; ITC: 20 mM HEPES pH 7.0, 0.1 M NaCl, 1 mM TCEP, 20 C (Fig 2 legend says 25 C); pull-down: 4 C with 10 ug poly(dI/dC), buffer not stated; NMR 298 K. As to conditions: protein: recombinant; tags: His (pET28HisTEV); blunt. In general terms: In ITC the heat of successive injections is recorded.

The target of data set [3] is T2, NAC1 (322-485). Kind of data set: ITC; single event; Table S2 prints 0.83; ITC: 20 mM HEPES pH 7.0, 0.1 M NaCl, 1 mM TCEP, 20 C (Fig 2 legend says 25 C); pull-down: 4 C with 10 ug poly(dI/dC), buffer not stated; NMR 298 K. As to conditions: protein: recombinant; tags: His (pET28HisTEV); blunt.
Data set [4] concerns the target T2, NAC1 (322-485). The data set can be described thus: ITC; first of two sequential events (Kd1); ITC: 20 mM HEPES pH 7.0, 0.1 M NaCl, 1 mM TCEP, 20 C (Fig 2 legend says 25 C); pull-down: 4 C with 10 ug poly(dI/dC), buffer not stated; NMR 298 K. The following applies: protein: recombinant; tags: His (pET28HisTEV); blunt.

B1: Biotin-GP1 5'-mut (dsDNA)
DNA 1: TGTGTGTGTCATCATGTATGTATTTATT
DNA 2: AATAAATACATACATGATGACACACACA
For B1, the binding result in data set [1] is listed as “binds”.

B2: de novo motif 1 (dsDNA)
DNA 1: AACCGCCGCCAA
DNA 2: TTGGCGGCGGTT
In general, Kd refers to the constant that tells how readily two partners part at equilibrium. With B2, in data set [2], the dissociation constant (Kd) amounted to 3000 nM.

B3: de novo motif 2 (dsDNA)
DNA 1: AACCCCGCCCCAA
DNA 2: TTGGGGCGGGGTT
Take B3: the Kd in data set [3] was 820 nM.

B4: Biotin-GP1 3'-mut (dsDNA)
DNA 1: TGTGTGTGTATGCATGACGGTATTTATT
DNA 2: AATAAATACCGTCATGCATACACACACA
Regarding B4, the binding result in data set [1] is “binds”.

B5: GP1 14-mer dsDNA (dsDNA)
DNA 1: GTATGCATGTATGT
DNA 2: ACATACATGCATAC
B5: the Kd in data set [4] worked out at 160 nM.

B6: Biotin-GP1 (dsDNA)
DNA 1: TGTGTGTGTATGCATGTATGTATTTATT
DNA 2: AATAAATACATACATGCATACACACACA
In the case of B6, the binding result in data set [1] was “binds”.
